We go through seven molecules from publication PMC11440976, “Optimization and Evaluation of Al^18F Labeling Using a NOTA—or RESCA1-Conjugated AE105 Peptide Antagonist of uPAR” (Frontiers in Nuclear Medicine, 2021).

For assay [1], the target named is T1, uPAR^1−283 (Homo sapiens, UniProt Q03405).
T1 construct: 10 μg/mL uPAR^1−283 in 10 mM sodium acetate pH 5.0 was covalently immobilized on a CM5 sensor chip; made in house
In words: SPR binding kinetics of peptides to immobilized uPAR (Biacore T200, single cycle). To be noted: NB = no binding; for kon / koff: uPAR immobilized on CM5 chip, peptide in solution, global fit, ± standard error of fit; for kon: five serial 2-fold dilutions, 10 mM HEPES, 150 mM NaCl, 3 mM EDTA, 0.05% P-20, pH 7.4, 20°C, read-out: kon (association rate constant); for koff: read-out: koff (dissociation rate constant). The procedure: Binding kinetics of the peptides-uPAR interactions were determined with surface plasmon resonance (SPR) on a Biacore T200™ system (Cytiva), as outlined ([10]). In brief; 10 μg/mL uPAR^1−283 in 10 mM sodium acetate pH 5.0 was covalently immobilized on a CM5 sensor chip via amine coupling yielding a surface density of 905-1,333 RU (~26–39 fmol/mm^2) ([11]). Subsequently, we measured the binding kinetics of the various peptides to immobilized uPAR with single cycle protocols in which the peptides were injected as five serial 2-fold dilutions for 200 s with a short dissociation phase in between (100 s). The last analyte injection was followed by a 1,000 s long dissociation phase. In the end of each cycle, two consecutive injections of 0.1 M acetic acid in 0.5 M NaCl regenerated the sensor chip. All experiments were run with a flowrate of 50 μl/min in 10 mM HEPES, 150 mM NaCl, 3 mM EDTA, and 0.05% (v/v) surfactant P-20 at pH 7.4 at 20°C. The kinetic rate constants (kon and koff) as well as the KD (koff/kon) were determined by non-linear regression fitting of the curves to a simple bimolecular interaction model. We applied the BiacoreT200 Evaluation^TM 3.0 software for the global fitting. Additional binding kinetic curves is provided in the Supplementary Material.
(SPR reads the build-up and loss of mass on a sensor chip optically.)

In a further assay the target is uPAR·uPA interaction (Homo sapiens, UniProt Q03405). In words: SPR competition of the uPAR·uPA interaction (uPAR in solution, immobilized pro-uPA^S356A). Type of assay: binding. To be noted: 2 nM uPAR incubated with 3-fold dilution series of peptide (0.076 nM to 1.5 μM), pH 7.4, 20°C, four-parameter dose-response fit, n = 3, ± standard error. The procedure: The IC50-values of RESCA-AE105, NOTA-AE105, AE105 (Asp-Cha-Phe-(D)Ser-(D)Arg-Tyr-Leu-Trp-Ser) and AE105-mut (Asp-Cha-Glu-(D)Ser-(D)Arg-Tyr-Leu-Glu-Ser) on the uPAR·uPA interaction were determined with SPR on a Biacore 3000™ instrument or a Biacore T200™ system (Cytiva). The set-up is overall as described previously ([12]). In brief, we obtained a high surface density of pro-uPA^S356A by immobilizing >5,000 RU (~ 0.1 pmol pro-uPA/mm^2) on a CM5 sensor chip. […] For the analysis, we incubated 2 nM uPAR with a 3-fold dilution series of the peptides (ranging from 0.076 nM to 1.5 μM) and the νobs was measured for 300 s at 20°C with a flow rate of 50 μL/min. The running buffer contained 10 mM HEPES, 150 mM NaCl, 3 mM EDTA and 0.05 % (v/v) surfactant P20, pH 7.4. The sensor chip was regenerated with two consecutive injections of 0.1 M acetic acid, 0.5 M NaCl in the end of each cycle. In parallel, we measured a standard curve (2-fold dilution of uPAR covering 0.06–2 nM). This standard curve included one repeated concentration point at the end to validate the biological integrity of the sensor chip.
Sequence of uPAR·uPA interaction (Q03405 23-305 limits assumed): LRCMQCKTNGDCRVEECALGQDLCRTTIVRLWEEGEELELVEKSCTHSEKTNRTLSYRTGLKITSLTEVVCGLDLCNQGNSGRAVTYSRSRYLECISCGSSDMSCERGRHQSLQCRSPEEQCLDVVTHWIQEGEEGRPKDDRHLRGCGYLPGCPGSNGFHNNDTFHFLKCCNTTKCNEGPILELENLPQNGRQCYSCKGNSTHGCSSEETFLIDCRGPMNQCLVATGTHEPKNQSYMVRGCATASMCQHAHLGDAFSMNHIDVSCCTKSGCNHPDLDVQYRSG

The target of assay [2] is T2, uPAR^1−283 (UniProt Q03405-1 23-305). In words: SPR; competition in solution: 2 nM uPAR incubated with 3-fold dilution series of the peptides (0.076 nM to 1.5 μM), free uPAR read by its association rate on pro-uPA^S356A immobilised at high density (>5,000 RU) on a CM5 chip; 10 mM HEPES, 150 mM NaCl, 3 mM EDTA, 0.05% P20, pH 7.4, 20°C; four-parameter dose-response fit, n = 3. The following applies: both partners purified.
T2 sequence (Q03405 23-305): as the sequence (Q03405 23-305 limits assumed) above

In assay [3] the target is T2, uPAR^1−283. The assay can be described thus: SPR; uPAR^1−283 immobilised on a CM5 chip by amine coupling (905-1,333 RU); peptides injected in single cycle protocols, five serial 2-fold dilutions; 10 mM HEPES, 150 mM NaCl, 3 mM EDTA, 0.05% P-20, pH 7.4, 20°C; Biacore T200; simple bimolecular model, global fit. To be noted: both partners purified.

Where a SMILES comes first, the peptide text is derived from it. Where no end group is shown, it is not given here. [ ]: non-standard residue; d: D form. Cha = N[C@@H](CC1CCCCC1)C(=O)O

T1 sequence (Q03405 23-305): as the sequence (Q03405 23-305 limits assumed) above

For orientation: kon means the second-order rate constant of association. The koff is a measure of how fast the partners let go of each other. `CC(C)C[C@H](NC(=O)[C@H](Cc1ccc(O)cc1)NC(=O)[C@@H](CCCNC(=N)N)NC(=O)[C@@H](CO)NC(=O)[C@H](Cc1ccccc1)NC(=O)[C@H](CC1CCCCC1)NC(=O)[C@@H](N)CC(=O)O)C(=O)N[C@@H](Cc1c[nH]c2ccccc12)C(=O)N[C@@H](CO)C(=O)O` [AE105]: the kon on uPAR^1−283 [1] was 1.01e+06 ± 3000 M⁻¹ s⁻¹. Also, the koff at uPAR^1−283 [1] (pH 7.4, 20°C) is 0.00413 ± 1e-05 s⁻¹.
For orientation: IC50 means the concentration needed to halve the response being measured. For `CC(C)C[C@H](NC(=O)[C@H](Cc1ccc(O)cc1)NC(=O)[C@@H](CCCNC(=N)N)NC(=O)[C@@H](CO)NC(=O)[C@H](CCC(=O)O)NC(=O)[C@H](CC1CCCCC1)NC(=O)[C@@H](N)CC(=O)O)C(=O)N[C@@H](CCC(=O)O)C(=O)N[C@@H](CO)C(=O)O` [AE105mut] (H-D[Cha]E[dS][dR]YLES-OH), the IC50 at uPAR·uPA interaction is greater than 1000 nM. Also, on uPAR^1−283 [1] (immobilized uPAR, pH 7.4, 20°C, simple bimolecular interaction model, read-out: KD (equilibrium dissociation constant, koff/kon)), the Kd was greater than 200 nM.
In the case of `CC(C)C[C@H](NC(=O)[C@H](Cc1ccc(O)cc1)NC(=O)[C@@H](CCCNC(=N)N)NC(=O)[C@@H](CO)NC(=O)[C@H](Cc1ccccc1)NC(=O)[C@H](CC1CCCCC1)NC(=O)[C@H](CC(=O)O)NC(=O)c1ccc(CN(CC(=O)O)[C@@H]2CCCC[C@H]2N(CC(=O)O)CC(=O)O)cc1)C(=O)N[C@@H](Cc1c[nH]c2ccccc12)C(=O)N[C@@H](CO)C(=O)O` [RESCA1-AE105], on uPAR^1−283 [1], the association rate constant (kon) turned out to be 292000 ± 1000 M⁻¹ s⁻¹. For the same molecule, at uPAR^1−283 [1] (pH 7.4, 20°C), the koff came to 0.014 ± 2e-05 s⁻¹.

B1: RESCA1-AE105 (peptide)
chain: DXFSRYLWS
modifications: RESCA1 chelator conjugated at the N-terminal; Cha (cyclohexylalanine) at position 2; (D)Ser at position 4; (D)Arg at position 5
In the assay with uPAR^1−283 [2], B1 had a half-inhibitory concentration (IC50) of 76.7 nM. Moreover, the Kd with uPAR^1−283 [3] was 48 nM.

B2: NOTA-AE105 (peptide)
chain: DXFSRYLWS
modifications: NOTA chelator conjugated at the N-terminal; Cha (cyclohexylalanine) at position 2; (D)Ser at position 4; (D)Arg at position 5
In the assay with uPAR^1−283 [3], B2 came in with a koff of 0.0125 s⁻¹ and an on-rate (kon) of 224000 M⁻¹ s⁻¹.

B3: AE105 (peptide)
chain: DXFSRYLWS
modifications: Cha (cyclohexylalanine) at position 2; (D)Ser at position 4; (D)Arg at position 5
In turn, B3 registered an IC50 with uPAR^1−283 [2] of 8.86 nM. Also, the Kd in the assay with uPAR^1−283 [3] amounted to 4.1 nM.
In turn, D[Cha]E[dS][dR]YLES [AE105-mut] showed a half-inhibitory concentration (IC50) with uPAR^1−283 [2] greater than 1000 nM.
